Measured values taken from US9090705B2.

Experiments:
Aspart precursor [1] = biological target: Aspart precursor
Aspart precursor [2] = biological target: Aspart precursor; remark: listed apart in the source

Yield (%) of Aspart, trypsin and Carboxypeptidase B added together (Aspart precursor [1]) | Yield (%) of Lispro, trypsin and Carboxypeptidase B added together (Lispro precursor) | Yield (%) of Glulisine, trypsin and Carboxypeptidase B added together (Glulisine precursor) | conversion of the precursor by trypsin alone (chromatographic profile after 8 hr) (Aspart precursor [2]) | Substance
75% | 78% | 78% |  | Carboxypeptidase B (enzyme)
 |  |  | 45% | Trypsin (enzyme)
